Marks after values point to notes of the source that are not given here.
What was measured:
[1] = molecular target: T1, DOI reductase from Burkholderia terrae strain AKC-020 (Paraburkholderia terrae, UniProt A0ABM7TVX3); assay: Km value and Vmax of purified DOI reductase; type: biochemical
Protocol: (§1) The protein concentration of the enzyme solution was also measured by the Bradford method.

[2] = molecular target: T1, DOI reductase from Burkholderia terrae strain AKC-020; assay: Substrate specificity of purified DOI reductase (oxidation reaction, NAD+ to NADH at 340 nm); type: biochemical; conditions: substrate 5 mM
Protocol: A quantity of 10 μL of enzyme solution was added to 980 μL of 0.1 M buffer containing 1.0 μmol of NAD^+ and prewarmed for five minutes at 25° C. A quantity of 10 μL of each 0.1 M substrate was added and mixed immediately. The rate of increase in the absorbance (wavelength 340 nm) over two minutes was measured by spectrophotometer, and the activity by each substrate was compared. […] In the table, N.D. means that no reaction could be detected.

[3] = substrate: O=C1C[C@@H](O)[C@H](O)[C@@H](O)[C@@H]1O; assay: Km value and Vmax of purified DOI reductase; type: biochemical, Burkholderia terrae; conditions: other: reduction reaction
Protocol: as §1

[4] = substrate: NC(=O)c1ccc[n+]([C@@H]2O[C@H](COP(=O)(O)OP(=O)(O)OC[C@H]3O[C@@H](n4cnc5c(N)ncnc54)[C@H](O)[C@@H]3O)[C@@H](O)[C@H]2O)c1; assay: Km value and Vmax of purified DOI reductase; type: biochemical, Burkholderia terrae; conditions: other: 0.1M Gly-NaOH, pH 9.0
Protocol: as §1

[5] = substrate: O[C@@H]1[C@@H](O)[C@H](O)C[C@@H](O)[C@H]1O; assay: purified protein, by the assay type; conditions: other: oxidation reaction
[6] = DOI reducing activity of recombinantly expressed inositol dehydrogenases/DOIR; type: biochemical; conditions: for DOI reducing activity: expressed in E. coli BL21 (DE3); for catalytic activity to convert 2-deoxy-scyllo-inosose into (−)-vibo-quercitol / reduction of DOI (in words): recombinant expression in Escherichia coli
Protocol: Specifically, the reaction solution composition other than DOI (990 μL) was taken by cuvette and prewarmed for approximately 5 minutes at 25° C. After adding DOI solution (10 μL) and mixing quickly, the rate of decrease in the absorbance (wavelength […]) over two minutes was measured using a spectrophotometer (Shimadzu, UV-2550) regulated to 25° C. with water as the control, and the decrease in absorbance per minute was calculated. Next, each strain was evaluated by calculating the U per mL of crude enzymatic solution, defining the amount that decreases [sic; converts]
Furthermore, inositol dehydrogenase (Sf-Idh) from Sinorhizobium fredii USDA191 is an enzyme that oxidizes myo-inositol, and iolX (Bs-IolX) from Bacillus subtilis 168 is reported to encode an enzyme showing activity on scyllo-inositol. In addition, iolW (Bs-IolW) is said to be an NADPH-dependent inositol dehydrogenase. These six genes were introduced into an expression vector Pet21B(+) (Merck), and expressed by E. coli BL21 (DE3).

[7] = Conversion of DOI to quercitol by enzymes from recombinant E. coli (HPLC, diastereomer excess); conditions: for Diastereomer excess of scyllo-quercitol: DOI converted to scyllo-quercitol; for Conversion rate: DOI to quercitol; for (−)-Vibo-quercitol produced: conversion of DOI
Protocol: Specifically, DOI conversion was carried out using a coenzyme regeneration system by formate dehydrogenase (FDH hereinafter, Roche Diagnostics Inc., product no. 244678). […] The reaction solution was incubated for three hours while shaking at 30° C.

[8] = Optimum pH of purified DOI reductase (DOI reduction, NADH decrease at 340 nm); type: biochemical; conditions: buffers of each pH, 25° C.
Protocol: A quantity of 10 μL of 0.1 M DOI was added and mixed immediately. The rate of decrease in the absorbance (wavelength 340 nm) over two minutes was measured by spectrophotometer, and the activity was compared at each pH.

[9] = activity relative to the culture broth

**Q.** For `O=C1C[C@@H](O)[C@H](O)[C@@H](O)[C@@H]1O` [DOI, 2-deoxy-scyllo-inosose], which “Vmax to DOI” value ([1]; reduction reaction) is on record?
**A.** Its value is 116.28 U/mg.

**Q.** With `O[C@H]1[C@H](O)[C@@H](O)[C@H](O)[C@@H](O)[C@H]1O` [Myo-inositol] as the molecule, how does the “Substrate specificity (oxidation reaction)” value ([2]; pH 8.0, 25° C.) read?
**A.** Its value is 3.21 U/mg.

**Q.** And the “Substrate specificity (oxidation reaction)” value ([2]; pH 9.0, 25° C.)?
**A.** Its value is 5.71 U/mg.

**Q.** Which results are given for `O[C@@H]1[C@@H](O)[C@H](O)C[C@@H](O)[C@H]1O` [(−)-vibo-quercitol, (1R,2R,4S,5R)-cyclohexane-1,2,3,4,5-pentol]?
**A.** Substrate specificity (oxidation reaction) ([2]; pH 8.0, 25° C.): 8.21 U/mg; Substrate specificity (oxidation reaction) ([2]; pH 9.0, 25° C.): 13.93 U/mg; Vmax to (−)-vibo-quercitol ([1]; oxidation reaction): 16.45 U/mg

B1: DOI reductase from Burkholderia terrae strain AKC-020 (Paraburkholderia terrae) (protein)
chain: MIRIAVLGAGRIGRIHAGNVAASPNAQLVVVADPVESAAKSLATRLGCEASTDPAGVLERKDIDAVVIGTPTDTHITFMLEAVRRGKAVLCEKPIDLDMEKSLAAANEVERQRGRVMLAFNRRFDPTSQAFRNAIDAGDVGEVRQVIISSRDPGMPPRDYVEHSGGIFRDMVIHDLDMARWLLGEEPVEVMAMASRLIDESLEKLTDFDTVMVQLRTASGKQCHINCCREAVYGYDQRMEVSGSKGMLLQENLRPSTIRRWSKEATDVREPLLNFFLERYEAAYKAELEAFVDALNTNSPLPTSVQDGLKALRLADAALESALSGKAVKV
**Q.** Which Km [3] does the source give for B1 here?
**A.** Its Km is 0.41 mM, 116.28 U/mg mM.

**Q.** And the Km [4]?
**A.** The Km was 0.11 mM (0.1M Gly-NaOH, pH 9.0) mM.

**Q.** And the Km [5]?
**A.** Its Km is 1.60 mM, 16.45 U/mg mM.

B2: BS-IolX: iolX enzyme from Bacillus subtilis 168, reported activity on scyllo-inositol, homology with DOIR 36% (protein, UniProt P40332 1-342, looked up)
scyllo-inositol …: MEHQVRCAVLGLGRLGYYHAKNLVTSVPGAKLVCVGDPLKGRAEQVARELGIEKWSEDPYEVLEDPGIDAVIIVTPTSTHGDMIIKAAENGKQIFVEKPLTLSLEESKAASEKVKETGVICQVGFMRRFDPAYADAKRRIDAGEIGKPIYYKGFTRDQGAPPAEFIKHSGGIFIDCSIHDYDIARYLLGAEITSVSGHGRILNNPFMEQYGDVDQALTYIEFDSGAAGDVEASRTSPYGHDIRAEVIGTEGSIFIGTLRHQHVTILSAKGSSFDIIPDFQTRFHEAYCLELQHFAECVRNGKTPIVTDIDATINLEVGIAATNSFRNGMPVQLDVKRAYTGM
**Q.** With B2 as the molecule, how does the DOI reducing activity [6, 9] read?
**A.** Its DOI reducing activity is 0.13 U/Ml culture.

**Q.** What about the “catalytic activity to convert 2-deoxy-scyllo-inosose into (−)-vibo-quercitol / reduction of DOI (in words)” value [6] of the same molecule?
**A.** Its value is “low ability”.

**Q.** And the “Remaining DOI” value [7]?
**A.** Its value is 0.4 mM.

**Q.** And the “Diastereomer excess of scyllo-quercitol” value ([7]; from recombinant E. coli)?
**A.** Its value is ≥99%.

**Q.** What about the “Diastereomer excess of scyllo-quercitol” value ([7]; from recombinant E. coli, listed as Bs-IolX) of the same molecule?
**A.** The value was 99%.

**Q.** What about the Conversion rate ([7]; from recombinant E. coli) of the same molecule?
**A.** Its Conversion rate is 96%.

**Q.** What about the “scyllo-quercitol produced (printed in the (−)-vibo-quercitol column, footnote *)” value ([7]; from recombinant E. coli, converted into scyllo-quercitol) of the same molecule?
**A.** The value was 9.6* mM.

B3: BS-IolW: NADPH-dependent inositol dehydrogenase from Bacillus subtilis 168, homology with DOIR 27% (protein, UniProt O32223 1-358, looked up)
scyllo-inositol …: MITLLKGRRKVDTIKVGILGYGLSGSVFHGPLLDVLDEYQISKIMTSRTEEVKRDFPDAEVVHELEEITNDPAIELVIVTTPSGLHYEHTMACIQAGKHVVMEKPMTATAEEGETLKRAADEKGVLLSVYHNRRWDNDFLTIKKLISEGSLEDINTYQVSYNRYRPEVQARWREKEGTATGTLYDLGSHIIDQTLHLFGMPKAVTANVMAQRENAETVDYFHLTLDYGKLQAILYGGSIVPANGPRYQIHGKDSSFIKYGIDGQEDALRAGRKPEDDSWGADVPEFYGKLTTIRGSDKKTETIPSVNGSYLTYYRKIAESIREGAALPVTAEEGINVIRIIEAAMESSKEKRTIMLEH
**Q.** Which DOI reducing activity ([6]; using NADPH as coenzyme) does the source give for B3 here?
**A.** The DOI reducing activity was 0.69) (using NADPH as coenzyme) U/Ml culture.

**Q.** And the “catalytic activity to convert 2-deoxy-scyllo-inosose into (−)-vibo-quercitol / reduction of DOI (in words)” value [6]?
**A.** The value was “low ability”.

**Q.** What about the “Remaining DOI” value [7] of the same molecule?
**A.** Its value is 9.9 mM.

B4: DOIR: 2-deoxy-scyllo-inosose reductase from Burkholderia terrae strain AKC-020, amino acid sequence SEQ ID NO: 2 (protein)
chain: B1 chain
modifications: Burkholderia terrae AKC-020
**Q.** For B4, which DOI reducing activity [6, 9] is on record?
**A.** Its DOI reducing activity is 11.2 U/Ml culture.

**Q.** What about the Conversion rate ([7]; from recombinant E. coli) of the same molecule?
**A.** Its Conversion rate is ≥99%.

**Q.** And the “(−)-Vibo-quercitol produced” value ([7]; from recombinant E. coli)?
**A.** Its value is 9.9 mM.

**Q.** What about the “pH of maximum activity” value [8] of the same molecule?
**A.** The value was 7.0-9.0.

B5: Bh-IolG: inositol dehydrogenase from Burkholderia sp. SJ98, homology with DOIR 79% (protein)
chain: MTRIAVLGAGRIGKIHAANVASNSDAKLVVVADPFEGAANSLAEKLGCEASTDCLSVIERDDVDAVVIGTPTDTHIQFMLHAVSKGKAVLCEKPIDLDMKKSLAAAKEVERHDGRVMLAFNRRFDPTSQAFRKAIDDGEVGDVRQVVITSRDPGMPPREYVTHSGGIFRDMVIHDLDLARWFLGEEPIEVMATGSRLVEPSLAEVPDFDTVMLQLRTESGKQCHINCCREAVYGYDQRLEVFGSRGMLLQENLRPSTIRRWSASATDAREPLLNFFLERYEAAYKTELTAFVEALRTNTTFPTSVADGLKALRLADCALESAMSCRSVKV
modifications: Burkholderia sp. SJ98
**Q.** With B5 as the molecule, how does the DOI reducing activity [6, 9] read?
**A.** Its DOI reducing activity is 11.7 U/Ml culture.

**Q.** What about the Conversion rate ([7]; from recombinant E. coli) of the same molecule?
**A.** Its Conversion rate is ≥99%.

**Q.** What about the “(−)-Vibo-quercitol produced” value ([7]; from recombinant E. coli) of the same molecule?
**A.** Its value is 9.9 mM.

B6: Pa-Idh: inositol dehydrogenase from Pantoea sp. At-9b, homology with DOIR 58% (protein)
chain: MKIAVLGAGRIGNVHAMNVASNPNVELVAIADPFIDNAIKLTEKYGGKAVKEPMELIESNAVDAVIIATPTDTHVDLMLSAARNGKAVLCEKPVDLNLERAEVACAELKQCDVPVMIAFNRRFDPSAAEMHSAIAKGEVGELHQIMISSRDPGFASMDYLRHSGGIFRDMTIHDFDMARWLLGEEPVQVFASASRMLEPALEPLNDFDTVMVQMITKSGKQCHINCSRQAVYGHDQRIEAYGSAGMLLNDNLRPSTLRRFNKSATDARVPLVHFFLERYADAYRMELEAFISAVKHAKPVPVTPYDGYMALKLADCAQQSAETGLPVQL
modifications: Pantoea sp. At-9b
**Q.** With B6 as the molecule, how does the DOI reducing activity [6, 9] read?
**A.** Its DOI reducing activity is 8.4 U/Ml culture.

**Q.** And the Conversion rate ([7]; from recombinant E. coli)?
**A.** The Conversion rate was ≥99%.

**Q.** What about the “(−)-Vibo-quercitol produced” value ([7]; from recombinant E. coli) of the same molecule?
**A.** The value was 9.9 mM.

B7: Ps-Idh: inositol dehydrogenase from Pseudomonas synxantha BG33R, homology with DOIR 68% (protein)
chain: MLRIAVLGAGRIAKIHAANVAAHPNATLVLVADPWREGVDALSTQLGCEAAYDCAAVLNRKDIDAVVIGTPTDTHIDLLLAAVAQGKAVLCEKPIDLDIAKARSAAQTVERQGGKVMLGFNRRFDPDMLRLRQALDAGQIGAVRQVIITSRDPGLAPREYLEHSGGILRDMTIHDFDTARHLLGEEPVQVSAFASRLVDPSLEQIDDYDSVMVLLRTASGKQCHINCCRQAVYGYDQRVEVSGASGVLLTDNHRPSTLRHWSAEHTEALEPLQHFFLERYADAYRNELMQFVDALNEGRELPTGMRDGLYALHLADCALESVKTGRSVAVCYDR
modifications: Pseudomonas synxantha BG33R
**Q.** Which DOI reducing activity [6, 9] does the source give for B7 here?
**A.** Its DOI reducing activity is 9.8 U/Ml culture.

**Q.** And the Conversion rate ([7]; from recombinant E. coli)?
**A.** The Conversion rate was ≥99%.

**Q.** What about the “(−)-Vibo-quercitol produced” value ([7]; from recombinant E. coli) of the same molecule?
**A.** Its value is 9.9 mM.

Source: patent US10000743B2, “2-deoxy-scyllo-inosose reductase” (Asahi Kasei Chemicals Corporation, priority 2013, dated 2018)
